We go through 1 substance from article PMC9650048.

The target in assay [1] is histone deacetylase 1 (HDAC1), Xenopus (Xenopus laevis (endogenous in egg nucleoplasmic extract)). The experiment in a line: co-IP; sequential IPs from NPE diluted 5x in ELB (10 mM Hepes-KOH pH 7.7, 2.5 mM MgCl2, 50 mM KCl, 250 mM sucrose), serum or antibody on Protein-A Sepharose, 4 °C 120 min, three washes; first round HDAC1 or HDAC2 IP, second round the converse antibody on the supernatant; supernatant and pellet by Western blot. On the technique in general: A western blot detects proteins with antibodies after separation by electrophoresis.

Assay [2] shares this target. Nature of the assay: immunodepletion (co-depletion), Western blot of the depleted extract; antibody on Protein-A Sepharose incubated with NPE at 4 °C for 1 h over two rounds; depleted extract blotted.

Substance “histone deacetylase 2 (HDAC2), Xenopus (enzyme)” returned a percent of HDAC2 removed by the HDAC1 IP in assay [1] of 50%. In assay [2], this substance displayed a percent of HDAC2 codepleted with HDAC1 of 50%.
